Target: full-length human LRRK2 (leucine-rich repeat kinase 2) (human) (UniProt Q5S007)
Experiment: cryo-EM structure

stoichiometry N: 2
Substance: full-length human LRRK2 (leucine-rich repeat kinase 2) (from UniProt Q5S007 1-2527) (enzyme)
